Data reported in US9181310B2 (priority 2003, dated 2015).

Assays:
[1] = test system: R. solanacearum strain Rsp446; type: in vivo, Ralstonia solanacearum; conditions: seeded T1 tobacco, three experiments each, 60 days
[2] = test system: X. oryzae and X. oryzicola; type: in vivo; conditions: transgenic rice, pIPG787

B1: BombBC: Bacteriophage Outer Membrane Breaching protein of Xanthomonas phage P15 (Xp15) ORF BC, 17.9 kD, SEQ ID NO. 17 (protein, listed as Xanthomonas campestris)
chain: MSDQTDTTQTTPAEKAPPKEIIRGRMPIAVVALARFGSQSTTTTKAAADALGTTVGKIDDIRKNRNFAYVTADFKPTEAQKADGIEWLKRHPVGADALIEELQNLPVATAEESAAFEQVRASARGQNAKTAEGEVAQAGGGNRRKKKEKPAEAGEVQNPPAADGDSLLS
Question: Which results are given for B1?
Answer: resistance conferred to transgenic tobacco [1]: strong resistance; resistance to Gram-negative bacterial pathogens [2]: will be resistant
